Changes are numbered by the printed parent chain. Names may count otherwise. Like-named read-outs stand apart in the source and are kept apart here.
How the values were obtained:
[1] = molecular target: T1, CD3D&E protein (Cat #: CT038-H2508H, Sino Biological) (human, UniProt P04234 22-105; P07766 23-126); experiment: SPR (BIAcore 8K), antibody captured by anti-human Fc, CD3D&E as analyte
T1 construct: Bought complex of the delta and epsilon chains; also called CD3D&E complex; human CD3D&E complex
T1 sequence (P04234 22-105, form in doubt, chain 1 of 2): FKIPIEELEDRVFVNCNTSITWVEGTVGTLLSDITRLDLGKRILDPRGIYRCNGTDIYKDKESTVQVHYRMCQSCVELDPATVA
T1 sequence (P07766 23-126, form in doubt, chain 2 of 2): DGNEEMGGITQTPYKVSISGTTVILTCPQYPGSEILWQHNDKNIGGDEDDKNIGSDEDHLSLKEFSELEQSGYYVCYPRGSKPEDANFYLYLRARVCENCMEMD
Description: Briefly, the mouse anti-human Fc antibodies were coupled to a CM5 biosensor chip. The anti-CD3 antibodies of the disclosure in the HBS-EP buffer (Cat #: BR-1006-69, GE Life Sciences) at the concentration of 1 μg/ml was flowed through the chip, where about 100 RU of the antibodies were captured by the mouse anti-human Fc antibodies. Serially diluted CD3D&E molecules (Cat #: CT038-H2508H, Sino Biological) in the HBS-EP buffer (Cat #: BR-1006-69, GE Life Sciences) (2-fold dilution starting at 20 μg/ml) were respectively flowed through the chip. Chip regeneration was performed with 3 M MgCl₂.

[2] = molecular target: T2, CD3E protein (Cat #: 10977-H08S, Sino Biological) (UniProt P07766 23-126); experiment: SPR (BIAcore 8K), CD3E coupled to the chip, antibody as analyte
T2 construct: also called CD3ε
T2 sequence (P07766 23-126 limits assumed, stated change not applied): as the sequence (P07766 23-126, form in doubt, chain 2 of 2) above
Description: For the test regarding binding affinity to CD3E (Cat #: 10977-H08S, Sino Biological), the CD3E molecules were coupled to a CMS biosensor chip, where about 200 RU of the molecules bound to the chip. The anti-CD3 antibodies of the disclosure diluted with the HBS-EP buffer (Cat #: BR-1006-69, GE Life Sciences) at 120 μg/ml were respectively flowed through the chip. Chip regeneration was performed with pH1.5 Gly-HCl.

[3] = molecular target: T3, CD3 on Jurkat cells (UniProt P04234 22-171; P07766 23-207); experiment: flow cytometry on Jurkat cells
T3 construct: whole, on cells
T3 sequence (P04234 22-171, chain 1 of 2): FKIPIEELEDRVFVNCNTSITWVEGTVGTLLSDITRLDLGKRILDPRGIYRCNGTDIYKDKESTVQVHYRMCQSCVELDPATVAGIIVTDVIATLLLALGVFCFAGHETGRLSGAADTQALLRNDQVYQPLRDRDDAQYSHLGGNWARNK
T3 sequence (P07766 23-207, chain 2 of 2): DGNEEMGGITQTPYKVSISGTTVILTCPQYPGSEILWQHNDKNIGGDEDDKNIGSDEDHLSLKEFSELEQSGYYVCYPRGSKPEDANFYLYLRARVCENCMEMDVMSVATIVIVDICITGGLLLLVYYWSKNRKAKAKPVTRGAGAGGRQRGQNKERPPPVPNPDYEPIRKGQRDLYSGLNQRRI
Description: (§1) Jurkat cells were collected, centrifuged at 300 g for 5 min, and suspended in PBS. After another centrifugation, the cells were suspended in 2% FBS-PBS at the cell density of 3×10⁶/ml, and […] were plated onto a U-bottom plate. The plate was added with 50 μl serially diluted anti-CD3 antibodies of the disclosure in 2% FBS-PBS (4-fold dilution, starting at 20 μg/ml), and incubated at room temperature for 1 h. The plate was washed with 2% FBS-PBS for three times, added with 50 μl PE-labeled goat-anti-human IgG (H+L) (1: 500), and incubated at room temperature for 45 min. The plate was washed with 2% FBS-PBS again for three times, and added with 150 μl 2% FBS-PBS to suspend the cells. The plate was measured for cell fluorescence using a cytometry, and the data was processed with FlowJo and analyzed with GraphPad.

[4] = molecular target: T1, CD3D&E protein (Cat #: CT038-H2508H, …); experiment: ELISA, coated CD3D&E
[5] = molecular target: T4, mouse BCMA on HEK293A/mouse BCMA cells (mouse, UniProt O88472 1-185); experiment: flow cytometry on HEK293A/mouse BCMA cells [continued) E]
T4 sequence: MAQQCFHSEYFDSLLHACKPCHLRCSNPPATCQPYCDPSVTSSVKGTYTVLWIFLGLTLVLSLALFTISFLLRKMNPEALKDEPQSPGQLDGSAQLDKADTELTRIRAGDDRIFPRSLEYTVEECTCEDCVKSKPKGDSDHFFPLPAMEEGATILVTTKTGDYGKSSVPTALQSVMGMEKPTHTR
Description: (§2) The anti-BCMA antibody's binding capability to cell surface BCMAs was tested by FACS. Briefly, HEK293A/human BCMA cells, HEK293A/monkey BCMA cells and HEK293A/mouse BCMA cells, as generated in Example 1, were collected, digested with trypsin, and subjected to centrifugation at 300 g for 5 min. The cells were suspended in PBS, and subjected to centrifugation again. The cells were re-suspended in PBS with 2% FBS at the cell density at 4×10⁶/ml, and 50 μl cells were seeded onto a U-bottom plate. […] The plate was washed with 2% FBS-PBS for three times, added with 50 μl PE-labeled goat-anti-human IgG (H+L) (1: 500), and incubated at room temperature for 45 min. The plate was washed with 2% FBS-PBS again for three times, and added with 150 μl 2% FBS-PBS to suspend the cells. The plate was measured for cell fluorescence using a cytometry, and the data was processed with FlowJo and analyzed with GraphPad.
(§3) Following the protocol of Example 6, the bispecific antibodies of the disclosure were tested for their binding capability to the HEK293A/human BCMA cells, HEK293A/monkey BCMA cells, and HEK293A/mouse BCMA cells as generated in Example 1.

[6] = molecular target: monkey BCMA on HEK293A/monkey BCMA cells (monkey, UniProt Q02223 1-184 (human entry)); experiment: flow cytometry on HEK293A/monkey BCMA cells
Sequence of monkey BCMA on HEK293A/monkey BCMA cells (Q02223 other isoform, or with tags, fused parts or gaps): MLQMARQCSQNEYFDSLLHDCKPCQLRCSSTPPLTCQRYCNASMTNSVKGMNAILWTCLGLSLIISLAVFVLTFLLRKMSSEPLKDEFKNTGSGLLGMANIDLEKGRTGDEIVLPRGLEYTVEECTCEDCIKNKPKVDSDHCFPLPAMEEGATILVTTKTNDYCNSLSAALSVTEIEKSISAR
Description: as §2, §3

[7] = molecular target: T5, BCMA-his protein (Cat #: BCA-H522y, ACRO) (human, UniProt Q02223 1-54); experiment: ELISA, coated BCMA protein
T5 construct: Bought recombinant protein; the construct is most likely only a soluble part of it; also called BCMA protein; human BCMA
T5 sequence: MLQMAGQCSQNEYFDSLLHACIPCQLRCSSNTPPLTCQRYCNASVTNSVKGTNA
Description: Briefly, an ELISA plate was coated with 100 μl 1 μg/ml BCMA protein (Cat #: BCA-H522y, ACRO) in PBS overnight at 4° C. Then, the plate was blocked with 250 μl PBST with 4% skimmed milk at room temperature for 1 h. […] The negative control well was added with PBST instead of the antibody. The plate was washed with PBST for three times, added with 100 μl HRP conjugated goat anti-human IgG (1:7000, Cat #: 31413, thermofisher), and incubated at room temperature for 1 h. The plate was washed again with PBST for four times, added with 100 μl freshly prepared TMB (Cat #: 555214, BD, USA), and left still for color development, which was terminated with 50 μl 10% H₂SO₄. The absorbance was read at 450 nm, and the data was processed and analyzed using GraphPad.
(§4) The purified bispecific antibodies were tested for their binding capability to recombinant human CD3 and human BCMA proteins by ELISA, following the protocols in Example 4 and Example 9.

[8] = molecular target: T3, CD3 on Jurkat cells; experiment: flow cytometry on Jurkat cells; remark: listed apart in the source
Description: as §1
Following the protocol of Example 11, the bispecific antibodies of the disclosure were tested for their binding capability to Jurkat cells.

[9] = molecular target: T6, human BCMA on HEK293A/human BCMA cells (human, UniProt Q02223 1-184); experiment: flow cytometry on HEK293A/human BCMA cells
T6 sequence: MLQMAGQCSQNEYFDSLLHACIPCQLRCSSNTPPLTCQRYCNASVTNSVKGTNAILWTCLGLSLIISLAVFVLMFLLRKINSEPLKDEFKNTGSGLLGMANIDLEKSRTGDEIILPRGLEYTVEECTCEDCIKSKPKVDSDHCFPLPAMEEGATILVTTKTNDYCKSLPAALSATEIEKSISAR
Description: as §2, §3

[10] = molecular target: T1, CD3D&E protein (Cat #: CT038-H2508H, …); experiment: ELISA, coated CD3D&E; remark: listed apart in the source
Description: as §4

[11] = molecular target: T1, CD3D&E protein (Cat #: CT038-H2508H, …); experiment: SPR (BIAcore 8K), protocol of Example 10
Description: (§5) Following the protocols in Example 5 and Example 10, the bispecific antibodies of the disclosure were tested for their binding affinity to CD3D&E and human BCMA.

[12] = molecular target: T5, BCMA-his protein (Cat #: BCA-H522y, …); experiment: SPR (BIAcore 8K), protocol of Example 5
Description: as §5

B1: anti-CD3D&E antibody D1E9, full-length human IgG1 (L234A/L235A/N297A)/kappa (antibody, V domains shown)
VH: EVQLVESGGGLVQPGRSLRLSCAASGFTFDDFAMHWVRQAPGKGLEWVSGITWNSGSVGYADSVKGRFTISRDNAKKSLYLQMNSLRAEDTALYYCAKDRSGYGHYYYGMDVWGQGTTVTVAS
VL: EIVMTQSPATLSVSPGERATLSCRASTSVSHNVAWYQQKPGQAPRLLIYGASTKVTGIPARFSGSGSGTEFTLTISSLQSEDFAVYYCQHYINWPLTFGGGTKVEIKR
Kd [1]: 120 nM
binding result [2]: no binding (tested: 120 µg/ml)
EC50 [3]: 0.0837 µg/mL
EC50 [4]: 0.0879 µg/mL

B2: anti-CD3D&E antibody D12A4, full-length human IgG1 (L234A/L235A/N297A)/kappa (antibody, V domains shown)
VH: B1 VH with D30G, F32Y, T52S, S55H, S57H, V58I, R100N
VL: B1 VL with T27R, H31R, V33L, V55P, I92T, T97R
Kd [1]: 357 nM
binding result [2]: no binding (tested: 120 µg/ml)
EC50 [3]: 0.11 µg/mL
EC50 [4]: 0.0226 µg/mL

B3: anti-CD3/BCMA bispecific antibody MBS305-H1-KIH (bispecific antibody, human IgG1, kappa, L234A L235A, N297A)
heavy 1: QVQLVQSGAEVKKPGASVKVSCKASGYTFTNHIIHWVRQAPGQGLEWMGYINPYPGYHGYNDKFSGRATMTSDTSTSTVYMELSSLRSEDTAVYYCARDGYYRDQDVLDYWGQGTLVTVSSASTKGPSVFPLAPSSKSTSGGTAALGCLVKDYFPEPVTVSWNSGALTSGVHTFPAVLQSSGLYSLSSVVTVPSSSLGTQTYICNVNHKPSNTKVDKKVEPKSCDKTHTCPPCPAPEAAGGPSVFLFPPKPKDTLMISRTPEVTCVVVDVSHEDPEVKFNWYVDGVEVHNAKTKPREEQYASTYRVVSVLTVLHQDWLNGKEYKCKVSNKALPAPIEKTISKAKGQPREPQVYTLPPSREEMTKNQVSLSCAVKGFYPSDIAVEWESNGQPENNYKTTPPVLDSDGSFFLVSKLTVDKSRWQQGNVFSCSVMHEALHNHYTQKSLSLSPGK
light 1: not shown
heavy 2: QVQLVQSGAEVKKPGASVKVSCKASGYTFTNHIIHWVRQAPGQGLEWMGYINPYPGYHGYNDKFSGRATMTSDTSTSTVYMELSSLRSEDTAVYYCARDGYYRDQDVLDYWGQGTLVTVSSGGGGSGGGGSGGGGSGGGGSDIQMTQSPSSLSASVGDRVTITCKASQDISQYLNWYQQKPGKAPKLLIYYTSGLHPGVPSRFSGSGSGTDFTFTISSLEPEDEATYYCQQGYALPWTFGQGTKLTAKRGGGGSGGGGSGGGGSEVQLVESGGGLVQPGRSLRLSCAASGFTFSDYTMHWVRQAPGKGLEWVSGISWNTGTIGYADSVKGRFTISRDNAKKSLYLQMNSLRAEDTALYYCAKDNSGYGHYYFGMDVWGQGTTVTVASASTKGPSVFPLAPSSKSTSGGTAALGCLVKDYFPEPVTVSWNSGALTSGVHTFPAVLQSSGLYSLSSVVTVPSSSLGTQTYICNVNHKPSNTKVDKKVEPKSCDKTHTCPPCPAPEAAGGPSVFLFPPKPKDTLMISRTPEVTCVVVDVSHEDPEVKFNWYVDGVEVHNAKTKPREEQYASTYRVVSVLTVLHQDWLNGKEYKCKVSNKALPAPIEKTISKAKGQPREPQVYTLPPSREEMTKNQVSLWCLVKGFYPSDIAVEWESNGQPENNYKTTPPVLDSDGSFFLYSKLTVDKSRWQQGNVFSCSVMHEALHNHYTQKSLSLSPGK
light 2: not shown
binding result [5]: no binding (tested: about 30000 ng/ml (LOG10 about 4.5))
EC50 [6]: 0.337 µg/mL
EC50 [7]: 0.0117 µg/mL
EC50 [8]: 0.00173 µg/mL
EC50 (read off the curve) [8]: ~2 µg/mL
EC50 [9]: 0.221 µg/mL
EC50 [10]: 0.0468 µg/mL
Kd [11]: 8.09 nM
Kd [12]: 0.168 nM

B4: anti-CD3/BCMA bispecific antibody MBS305-H2-KIH (bispecific antibody, human IgG1, kappa, L234A L235A, N297A)
heavy 1: B3 heavy 1
light 1: not shown
heavy 2: B3 heavy 2 with S294D, Y296F, T297A, S316T, T319S, T321S, I322V, N364R, F372Y
light 2: not shown
binding result [5]: no binding (tested: about 30000 ng/ml (LOG10 about 4.5))
EC50 [6]: 0.373 µg/mL
EC50 [7]: 0.0124 µg/mL
EC50 [8]: 0.00328 µg/mL
EC50 [9]: 0.285 µg/mL
EC50 [10]: 0.141 µg/mL
Kd [11]: 256 nM
Kd [12]: 0.206 nM

B5: anti-CD3/BCMA bispecific antibody MBS305-M-KIH (bispecific antibody, human IgG1, kappa, L234A L235A, N297A)
heavy 1: B3 heavy 1
light 1: not shown
heavy 2: B3 heavy 2 with S294D, D295S, T297S, T319S, T321S, I322L, N364R, F372Y
light 2: not shown
binding result [5]: no binding (tested: about 30000 ng/ml (LOG10 about 4.5))
EC50 [6]: 0.23 µg/mL
EC50 [7]: 0.0137 µg/mL
EC50 [8]: 0.00106 µg/mL
EC50 (read off the curve) [8]: ~1 µg/mL
EC50 [9]: 0.199 µg/mL
EC50 [10]: 0.089 µg/mL
Kd [11]: 37.9 nM
Kd [12]: 0.105 nM

— patent US20230348630A1 (BEIJING MABWORKS BIOTECH, published 2023)
